From patent US20130243802A1 (ATLANTIC RESEARCH CENTER INSTITUTE, published 2013)

How the values were obtained:
[1] = target: T1, Recombinant Mycobacterium tuberculosis HSP70 (Aalto, Eire) (Mycobacterium tuberculosis, UniProt P9WMJ9 1-625); assay: CHIEF gel
T1 construct: also called mtHSP70; Mycobacteria HSP70

E. coli orthologue, dnaK = E. coli orthologue, dnaK (E. coli, UniProt P0A6Y8 2-638); assay: CHIEF (counter HSP isoelectric focusing) gel
Sequence of E. coli orthologue, dnaK (P0A6Y8 2-638 limits assumed): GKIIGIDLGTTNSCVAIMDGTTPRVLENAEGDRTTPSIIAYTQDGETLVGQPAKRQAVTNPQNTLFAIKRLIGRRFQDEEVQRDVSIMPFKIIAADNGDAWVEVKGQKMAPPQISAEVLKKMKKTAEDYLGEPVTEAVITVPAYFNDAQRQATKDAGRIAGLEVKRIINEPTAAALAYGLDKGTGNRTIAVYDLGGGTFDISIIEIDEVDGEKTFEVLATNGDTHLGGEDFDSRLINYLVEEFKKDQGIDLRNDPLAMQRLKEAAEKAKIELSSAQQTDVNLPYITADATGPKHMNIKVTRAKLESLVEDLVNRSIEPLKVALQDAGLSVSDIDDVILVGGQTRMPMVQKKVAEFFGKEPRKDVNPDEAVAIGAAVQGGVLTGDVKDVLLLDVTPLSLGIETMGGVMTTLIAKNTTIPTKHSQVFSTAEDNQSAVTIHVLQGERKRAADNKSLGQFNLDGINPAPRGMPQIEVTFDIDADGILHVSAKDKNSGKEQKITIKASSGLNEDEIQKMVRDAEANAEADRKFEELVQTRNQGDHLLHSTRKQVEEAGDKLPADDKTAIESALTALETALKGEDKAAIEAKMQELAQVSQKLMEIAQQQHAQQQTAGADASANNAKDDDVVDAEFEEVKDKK

T1 sequence (P9WMJ9 whole entry): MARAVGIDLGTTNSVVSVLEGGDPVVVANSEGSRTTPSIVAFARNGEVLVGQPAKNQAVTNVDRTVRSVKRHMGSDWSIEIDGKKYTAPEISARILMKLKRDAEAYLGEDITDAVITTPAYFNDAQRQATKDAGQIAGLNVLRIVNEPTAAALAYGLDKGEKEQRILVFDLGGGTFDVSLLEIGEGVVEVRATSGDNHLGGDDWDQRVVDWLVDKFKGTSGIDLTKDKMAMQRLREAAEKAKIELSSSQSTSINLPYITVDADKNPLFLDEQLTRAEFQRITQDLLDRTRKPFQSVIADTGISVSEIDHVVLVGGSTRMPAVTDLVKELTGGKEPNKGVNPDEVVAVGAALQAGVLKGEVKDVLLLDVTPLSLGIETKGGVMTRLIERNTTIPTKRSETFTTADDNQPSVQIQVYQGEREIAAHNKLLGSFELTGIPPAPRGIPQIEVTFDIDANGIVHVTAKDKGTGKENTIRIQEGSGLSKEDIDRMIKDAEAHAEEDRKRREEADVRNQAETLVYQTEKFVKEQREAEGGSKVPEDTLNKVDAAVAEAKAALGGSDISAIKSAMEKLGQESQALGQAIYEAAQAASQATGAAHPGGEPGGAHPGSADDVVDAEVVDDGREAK

Binder	binding result [1]	binding result (E. coli orthologue, dnaK)
ARTTHYGSLPQKAQGHR (range 62-78; Synthetic candidate peptide; also called MBP peptide 1 (62-78)) [MBP 62-78 peptide]	no binding	
bovine myelin basic protein (other, UniProt P02687 1-169, looked up, also called bMBP; MBP) AAQKRPSQRSKYLASASTMDHARHGFLPRHRDTGILDSLGRFFGSDRGAPKRGSGKDGHHAARTTHYGSLPQKAQGHRPQDENPVVHFFKNIVTPRTPPPSQGKGRGLSLSRFSWGAEGQKPGFGYGGRASDYKSAHKGLKGHDAQGTLSKIFKLGGRDSRSGSPMARR	binds	no binding
PSQGKGRGLSLSRFSWGA (Synthetic peptide (New England Peptide)) [bMBP 100-117 peptide]	binds	
